Results published in the supplement of paper PMC6757056.
± gives the standard deviation of the averaged measurements.

B1: library; a variant is named by its letters at N, in order (parent)
chain: GCUGUCACCGAGAAACUGUGAAGUAUAUCUUAAACCUGGGCACUUAAAAGAUAUAUGGAGUUAGUAGUGCAACCUGCUCGGUCUGAUGAGUCCNNNNNNGGACGAAACAGC

Legend:
cyclic di-GMP [1] = variants of: B1; experiment: normalized RNA/DNA level without ligand (relative to sTRSVctl = 100) (log10 (% of sTRSVctl)); HEK293T; ligand: cyclic di-GMP (c-di-GMP-II aptamer); higher = less ribozyme self-cleavage, higher mRNA level; conditions: reporter: mCherry (pCS4076), ligand present: no
Procedure, shortened: (§1)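 Total RNA, extracted with EDTA 72 h after HEK293T cells were transfected with 4 µg per 6-well well of reporter-linked ribozyme switch library plasmids, was reverse-transcribed, amplified, barcoded and sequenced. Ligand, if used, was added 1 h before transfection. RNA level was derived from RNA reads divided by DNA reads and normalized to a spiked-in non-cleaving sequence or to the top sequences. This was multiplied by 100 and log10-transformed, with the top set of 25 sequences and a ≥100 DNA read minimum.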

cyclic di-GMP [2] = variants of: B1; experiment: normalized RNA/DNA level with ligand (relative to sTRSVctl = 100) (log10 (% of sTRSVctl)); HEK293T; ligand: cyclic di-GMP (c-di-GMP-II aptamer); ligand concentration (+) RNA-Seq: 1 mM; higher = less ribozyme self-cleavage, higher mRNA level; conditions: reporter: mCherry (pCS4076), ligand present: yes
Procedure, shortened: as §1

Row | Variant | normalized RNA/DNA level without ligand (log10) (cyclic di-GMP [1]) | normalized RNA/DNA level with ligand (log10) (cyclic di-GMP [2])
1 | CUUCUC | 1.77 ± 0.049 | 1.86 ± 0.14
2 | ACGCAC | 1.61 ± 0.018 | 1.79 ± 0.11
3 | UUGAUU | 1.698 ± 0.016 | 1.81 ± 0.083
4 | CCGAUU | 1.54 ± 0.052 | 1.73 ± 0.12
5 | GUUACG | 1.65 ± 0.075 | 1.81 ± 0.083
6 | CAUGCC | 1.79 ± 0.029 | 1.89 ± 0.15
7 | CCUGAU | 1.6 ± 0.021 | 1.78 ± 0.14
8 | CAAUGC | 1.76 ± 0.076 | 1.83 ± 0.14
9 | GGUGCC | 1.82 ± 0.077 | 1.95 ± 0.15
10 | AAAAAU | 1.547 ± 0.0027 | 1.72 ± 0.13
11 | GCAUUA | 1.47 ± 0.089 | 1.71 ± 0.12
12 | GGCACC | 1.75 ± 0.06 | 1.82 ± 0.085
13 | GGCACG | 1.76 ± 0.026 | 1.88 ± 0.039
14 | CGAGCC | 1.824 ± 0.0092 | 1.88 ± 0.083
15 | CCUUGU | 1.75 ± 0.058 | 1.86 ± 0.1
16 | AGUCCU | 1.77 ± 0.023 | 1.87 ± 0.086
17 | AACCUC | 1.757 ± 0.0019 | 1.85 ± 0.058
18 | GCAUCC | 1.65 ± 0.077 | 1.82 ± 0.052
19 | CCCGAC | 1.7 ± 0.018 | 1.81 ± 0.14

Row | Variant | normalized RNA/DNA level without ligand (log10) (cyclic di-GMP [1]) | normalized RNA/DNA level with ligand (log10) (cyclic di-GMP [2])
20 | AGUGUU | 1.617 ± 0.0053 | 1.79 ± 0.12
21 | AAUAAU | 1.63 ± 0.051 | 1.8 ± 0.077
22 | UGGGGU | 1.63 ± 0.056 | 1.77 ± 0.11
23 | UAACAA | 1.7 ± 0.034 | 1.83 ± 0.16
24 | UAUCCG | 1.8 ± 0.022 | 1.87 ± 0.095
25 | CGCGAC | 1.62 ± 0.041 | 1.8 ± 0.046
26 | AGCGAU | 1.71 ± 0.015 | 1.87 ± 0.1
27 | AGCGAC | 1.65 ± 0.052 | 1.81 ± 0.077
28 | CCCGCG | 1.79 ± 0.046 | 1.9 ± 0.044
29 | CCGCCG | 1.738 ± 0.01 | 1.82 ± 0.1
30 | UCCUCU | 1.74 ± 0.06 | 1.87 ± 0.13
31 | AUGCAG | 1.7646 ± 0.00074 | 1.89 ± 0.055
32 | UCCAAG | 1.6 ± 0.033 | 1.78 ± 0.097
33 | CCAUCC | 1.81 ± 0.043 | 1.92 ± 0.092
34 | AUUUCA | 1.701 ± 0.013 | 1.85 ± 0.12
35 | UCCAUG | 1.67 ± 0.021 | 1.85 ± 0.15
36 | GAUAAC | 1.675 ± 0.0073 | 1.85 ± 0.1
37 | AAGCAU | 1.655 ± 0.0071 | 1.82 ± 0.1
38 | UAUAUU | 1.68 ± 0.043 | 1.86 ± 0.12

Row | Variant | normalized RNA/DNA level without ligand (log10) (cyclic di-GMP [1]) | normalized RNA/DNA level with ligand (log10) (cyclic di-GMP [2])
39 | ACGGGC | 1.7 ± 0.073 | 1.88 ± 0.1
40 | UGGCUU | 1.694 ± 0.014 | 1.88 ± 0.058
41 | CGUCAC | 1.63 ± 0.065 | 1.78 ± 0.062
42 | CGCAGA | 1.45 ± 0.08 | 1.68 ± 0.078
43 | CGGAAC | 1.45 ± 0.077 | 1.62 ± 0.14
44 | CAGGGC | 1.73 ± 0.044 | 1.86 ± 0.16
45 | UGCCAC | 1.77 ± 0.056 | 1.88 ± 0.15
46 | AAUCCU | 1.73 ± 0.073 | 1.86 ± 0.11
47 | UGAGUA | 1.73 ± 0.032 | 1.85 ± 0.15
48 | UUUACU | 1.75 ± 0.031 | 1.88 ± 0.092
49 | GAGUUU | 1.79 ± 0.031 | 1.87 ± 0.11
50 | ACGUCC | 1.75 ± 0.042 | 1.93 ± 0.12
51 | CUCAAA | 1.38 ± 0.12 | 1.59 ± 0.076
52 | GGUUUU | 1.7 ± 0.015 | 1.84 ± 0.077
53 | AUAUGA | 1.43 ± 0.066 | 1.63 ± 0.071
54 | GAGCAC | 1.82 ± 0.053 | 1.87 ± 0.077
55 | CCCUUC | 1.729 ± 0.0068 | 1.86 ± 0.082
56 | GGCCAA | 1.638 ± 0.01 | 1.74 ± 0.1
57 | ACCUUG | 1.7 ± 0.065 | 1.81 ± 0.063
